{"source": "paper PMC3057058", "about": "(Virology, 2011)", "molecules": {"B1": {"name": "simian virus 40 (SV40) wild-type VP1, in virus-like particles (natural protein)", "chain": "APTKRKGSCPGAAPKKPKEPVQVPKLVIKGGIEVLGVKTGVDSFTEVECFLNPQMGNPDEHQKGLSKSLAAEKQFTDDSPDKEQLPCYSVARIPLPNINEDLTCGNILMWEAVTVKTEVIGVTAMLNLHSGTQKTHENGAGKPIQGSNFHFFAVGGEPLELQGVLANYRTKYPAQTVTPKNATVDSQQMNTDHKAVLDKDNAYPVECWVPDPSKNENTRYFGTYTGGENVPPVLHITNTATTVLLDEQGVGPLCKADSLYVSAVDICGLFTNTSGTQQWKGLPRYFKITLRKRSVKNPYPISFLLSDLINRRTQRVDGQPMIGMSSQVEEVRVYEDTEELPGDPDMIRYIDEFGQTTTRMQ"}}, "key": {"[1]": {"target": "avian polyomavirus (APV) major capsid protein VP1 (avian polyomavirus (APV), strain BFDV-5) (UniProt P13891)", "assay": "negative-stain electron microscopy"}, "[2]": {"target": "avian polyomavirus (APV) major capsid protein VP1 (avian polyomavirus (APV), strain BFDV-5) (UniProt P13891)", "assay": "cryo-EM structure"}, "[3]": {"target": "the molecule itself", "assay": "cryo-EM structure"}}}
{"molecule": "avian polyomavirus (APV) major capsid protein VP1 (from UniProt P13891 1-343) (natural protein)", "values": [{"measurement": "stoichiometry N", "setting": "[1]", "result": 5}, {"measurement": "stoichiometry N", "setting": "[2]", "result": 5}]}
{"molecule": "B1", "values": [{"measurement": "binding result", "setting": "[3]", "result": "binds"}]}
